Laboratory results published in PMC10397247.
Each block holds one binder with its values, some of them ahead of it.

Experiments:
4H968-bA = biological target: T1, 4H968-bA; experiment: two-hybrid library CCNG1;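 note: natural log of median RNA to DNA barcode read ratio; higher means stronger binding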
T1 chain: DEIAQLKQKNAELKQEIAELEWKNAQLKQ

4H953-bN = biological target: T2, 4H953-bN; experiment: two-hybrid library CCNG1;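 note: natural log of median RNA to DNA barcode read ratio; higher means stronger binding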
T2 chain: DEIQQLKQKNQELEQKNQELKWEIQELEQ

4H967-bN = biological target: T3, 4H967-bN; experiment: two-hybrid library CCNG1;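 note: natural log of median RNA to DNA barcode read ratio; higher means stronger binding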
T3 chain: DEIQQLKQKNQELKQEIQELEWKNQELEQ

4H968-bN = biological target: T4, 4H968-bN; experiment: two-hybrid library CCNG1;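 note: natural log of median RNA to DNA barcode read ratio; higher means stronger binding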
T4 chain: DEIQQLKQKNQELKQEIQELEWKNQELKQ

4H310-AA = biological target: T5, 4H310-AA; experiment: two-hybrid library CCmax;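 note: natural log of median RNA to DNA barcode read ratio; higher means stronger binding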
T5 chain: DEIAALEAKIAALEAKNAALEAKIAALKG

4H3120-AA = biological target: T6, 4H3120-AA; experiment: two-hybrid library CCmax; conditions: mean of both orientations;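 note: natural log of median RNA to DNA barcode read ratio; higher means stronger binding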
T6 chain: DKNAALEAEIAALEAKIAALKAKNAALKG

4H3130-AA = biological target: T7, 4H3130-AA; experiment: two-hybrid library CCmax; conditions: mean of both orientations
T7 chain: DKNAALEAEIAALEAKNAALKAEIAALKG

4H3165-AA = biological target: T8, 4H3165-AA; experiment: two-hybrid library CCmax; conditions: mean of both orientations
T8 chain: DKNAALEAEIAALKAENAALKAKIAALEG

4H3381-AA = biological target: T9, 4H3381-AA; experiment: two-hybrid library CCmax; conditions: mean of both orientations
T9 chain: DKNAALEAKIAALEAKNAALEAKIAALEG

4H3395-AA = biological target: T10, 4H3395-AA; experiment: two-hybrid library CCmax; conditions: mean of both orientations
T10 chain: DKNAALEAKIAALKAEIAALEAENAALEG

4H3410-AA = biological target: T11, 4H3410-AA; experiment: two-hybrid library CCmax; conditions: mean of both orientations
T11 chain: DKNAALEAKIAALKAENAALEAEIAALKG

4H3590-AA = biological target: T12, 4H3590-AA; experiment: two-hybrid library CCmax; conditions: mean of both orientations
T12 chain: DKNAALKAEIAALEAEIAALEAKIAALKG

4H3697-AA = biological target: T13, 4H3697-AA; experiment: two-hybrid library CCmax; conditions: mean of both orientations
T13 chain: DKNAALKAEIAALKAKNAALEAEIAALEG

4H3753-AA = biological target: T14, 4H3753-AA; experiment: two-hybrid library CCmax; conditions: mean of both orientations
T14 chain: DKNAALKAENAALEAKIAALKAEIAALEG

4H3865-AA = biological target: T15, 4H3865-AA; experiment: two-hybrid library CCmax; conditions: mean of both orientations
T15 chain: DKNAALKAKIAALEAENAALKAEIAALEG

4H458-AA = biological target: T16, 4H458-AA; experiment: two-hybrid library CCmax; conditions: mean of both orientations
T16 chain: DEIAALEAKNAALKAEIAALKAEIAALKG

4H485-AA = biological target: T17, 4H485-AA; experiment: two-hybrid library CCmax; conditions: mean of both orientations
T17 chain: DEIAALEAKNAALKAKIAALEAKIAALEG

4H536-AA = biological target: T18, 4H536-AA; experiment: two-hybrid library CCmax; conditions: mean of both orientations
T18 chain: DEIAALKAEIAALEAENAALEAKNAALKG

4H570-AA = biological target: T19, 4H570-AA; experiment: two-hybrid library CCmax; conditions: mean of both orientations
T19 chain: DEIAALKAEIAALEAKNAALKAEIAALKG

4H629-AA = biological target: T20, 4H629-AA; experiment: two-hybrid library CCmax; conditions: mean of both orientations
T20 chain: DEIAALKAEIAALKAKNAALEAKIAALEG

4H710-AA = biological target: T21, 4H710-AA; experiment: two-hybrid library CCmax; conditions: mean of both orientations
T21 chain: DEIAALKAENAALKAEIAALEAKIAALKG

4H745-AA = biological target: T22, 4H745-AA; experiment: two-hybrid library CCmax; conditions: mean of both orientations
T22 chain: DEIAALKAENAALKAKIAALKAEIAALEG

4H797-AA = biological target: T23, 4H797-AA; experiment: two-hybrid library CCmax; conditions: mean of both orientations
T23 chain: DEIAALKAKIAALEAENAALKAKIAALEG

4H850-AA = biological target: T24, 4H850-AA; experiment: two-hybrid library CCmax; conditions: mean of both orientations
T24 chain: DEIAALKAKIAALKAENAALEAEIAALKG

4H891-AA = biological target: T25, 4H891-AA; experiment: two-hybrid library CCmax; conditions: mean of both orientations
T25 chain: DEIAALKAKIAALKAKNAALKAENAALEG

4H909-AA = biological target: T26, 4H909-AA; experiment: two-hybrid library CCmax; conditions: mean of both orientations
T26 chain: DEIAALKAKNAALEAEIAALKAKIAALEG

4H930-AA = biological target: T27, 4H930-AA; experiment: two-hybrid library CCmax; conditions: mean of both orientations
T27 chain: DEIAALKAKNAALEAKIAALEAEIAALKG

4H94-AA = biological target: T28, 4H94-AA; experiment: two-hybrid library CCmax; conditions: mean of both orientations
T28 chain: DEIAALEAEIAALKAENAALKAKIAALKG

APC8516-AA = biological target: T29, APC8516-AA; experiment: two-hybrid library CCmax
T29 chain: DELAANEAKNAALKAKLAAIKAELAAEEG

APC9141-AA = biological target: T30, APC9141-AA; experiment: two-hybrid library CCmax; conditions: mean of both orientations
T30 chain: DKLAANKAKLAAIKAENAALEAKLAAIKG

APC9182-AA = biological target: T31, APC9182-AA; experiment: two-hybrid library CCmax; conditions: mean of both orientations
T31 chain: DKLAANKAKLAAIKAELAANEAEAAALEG

APC9291-AA = biological target: T32, APC9291-AA; experiment: two-hybrid library CCmax; conditions: mean of both orientations
T32 chain: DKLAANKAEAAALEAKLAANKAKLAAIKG

APC9806-AA = biological target: T33, APC9806-AA; experiment: two-hybrid library CCmax; conditions: mean of both orientations
T33 chain: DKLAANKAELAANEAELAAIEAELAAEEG

4H918-bA = biological target: T34, 4H918-bA; experiment: two-hybrid library CCNG1
T34 chain: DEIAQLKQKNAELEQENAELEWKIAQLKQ

4H953-bA = biological target: T35, 4H953-bA; experiment: two-hybrid library CCNG1
T35 chain: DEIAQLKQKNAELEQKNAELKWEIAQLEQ

4H967-bA = biological target: T36, 4H967-bA; experiment: two-hybrid library CCNG1
T36 chain: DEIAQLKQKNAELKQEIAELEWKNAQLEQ

4H3709-AA = biological target: T37, 4H3709-AA; experiment: two-hybrid library CCmax
T37 chain: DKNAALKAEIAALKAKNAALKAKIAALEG

4H391-AA = biological target: T38, 4H391-AA; experiment: two-hybrid library CCmax; conditions: mean of both orientations
T38 chain: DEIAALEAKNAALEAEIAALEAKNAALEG

4H3920-AA = biological target: T39, 4H3920-AA; experiment: two-hybrid library CCmax; conditions: mean of both orientations
T39 chain: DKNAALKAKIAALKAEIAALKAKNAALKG

4H3939-AA = biological target: T40, 4H3939-AA; experiment: two-hybrid library CCmax; conditions: mean of both orientations
T40 chain: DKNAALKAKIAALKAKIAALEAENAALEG

4H428-AA = biological target: T41, 4H428-AA; experiment: two-hybrid library CCmax; conditions: mean of both orientations
T41 chain: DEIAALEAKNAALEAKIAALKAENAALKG

4H478-AA = biological target: T42, 4H478-AA; experiment: two-hybrid library CCmax; conditions: mean of both orientations
T42 chain: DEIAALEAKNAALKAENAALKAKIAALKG

4H497-AA = biological target: T43, 4H497-AA; experiment: two-hybrid library CCmax; conditions: mean of both orientations
T43 chain: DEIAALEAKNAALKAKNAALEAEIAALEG

4H656-AA = biological target: T44, 4H656-AA; experiment: two-hybrid library CCmax; conditions: mean of both orientations
T44 chain: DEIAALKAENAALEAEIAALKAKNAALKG

4H675-AA = biological target: T45, 4H675-AA; experiment: two-hybrid library CCmax; conditions: mean of both orientations
T45 chain: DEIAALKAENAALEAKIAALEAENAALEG

4H971-AA = biological target: T46, 4H971-AA; experiment: two-hybrid library CCmax; conditions: mean of both orientations
T46 chain: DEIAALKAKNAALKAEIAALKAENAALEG

B1: 4H968-bA (peptide)
chain: DEIAQLKQKNAELKQEIAELEWKNAQLKQ
interaction score (4H968-bA): -1.46

B2: 4H953-bN (peptide)
chain: DEIQQLKQKNQELEQKNQELKWEIQELEQ
interaction score (4H953-bN): -1.67 | interaction score (4H967-bN): -1.76 | interaction score (4H968-bN): -1.24

B4: APC8516-AA (peptide)
chain: DELAANEAKNAALKAKLAAIKAELAAEEG
interaction score (APC8516-AA): -1.87 | interaction score (APC9141-AA): -1.56 | interaction score (APC9182-AA): -1.64 | interaction score (APC9291-AA): -1.91 | interaction score (APC9806-AA): -1.63

B5: 4H918-bA (peptide)
chain: DEIAQLKQKNAELEQENAELEWKIAQLKQ
interaction score (4H918-bA): 0.453 | interaction score (4H953-bA): 1.53 | interaction score (4H967-bA): -0.684 | interaction score (4H968-bA): -0.293

Continued, values first:

interaction score (4H310-AA): 1.89 | interaction score (4H3120-AA): -1.43 | interaction score (4H3130-AA): -0.0638 | interaction score (4H3165-AA): -1.5 | interaction score (4H3381-AA): 0.757 | interaction score (4H3395-AA): -1.03 | interaction score (4H3410-AA): -0.251 | interaction score (4H3590-AA): -0.923 | interaction score (4H3697-AA): 0.375 | interaction score (4H3753-AA): -1.8 | interaction score (4H3865-AA): 1.13 | interaction score (4H458-AA): 1.7 | interaction score (4H485-AA): -0.778 | interaction score (4H536-AA): -0.922 | interaction score (4H570-AA): 1.97 | interaction score (4H629-AA): -0.767 | interaction score (4H710-AA): -0.577 | interaction score (4H745-AA): -0.998 | interaction score (4H797-AA): -0.563 | interaction score (4H850-AA): 1.33 | interaction score (4H891-AA): -0.168 | interaction score (4H909-AA): -1.39 | interaction score (4H930-AA): -1.11 | interaction score (4H94-AA): -0.904
B3: 4H310-AA (peptide)
chain: DEIAALEAKIAALEAKNAALEAKIAALKG

interaction score (4H3709-AA): 0.066 | interaction score (4H391-AA): -1.04 | interaction score (4H3920-AA): -1.81 | interaction score (4H3939-AA): -2.03 | interaction score (4H428-AA): -2.58 | interaction score (4H478-AA): -0.647 | interaction score (4H497-AA): -1.73 | interaction score (4H656-AA): 0.489 | interaction score (4H675-AA): 1.6 | interaction score (4H971-AA): -1.69
B6: 4H3709-AA (peptide)
chain: DKNAALKAEIAALKAKNAALKAKIAALEG
